The results in this text go back to article PMC11271494, “Multi-domain interaction mediated strength-building in human α-actinin dimers unveiled by direct single-molecule quantification” (Nature Communications, 2024).

Bounds are passed on as bounds.

B3: human α-actinin 1 rod domain SR1–SR2–SR3–SR4 (shear–force constructs) (domain or fragment, UniProt P12814 267-745, looked up)
chain: AVNQENEQLMEDYEKLASDLLEWIRRTIPWLENRVPENTMHAMQQKLEDFRDYRRLHKPPKVQEKCQLEINFNTLQTKLRLSNRPAFMPSEGRMVSDINNAWGCLEQVEKGYEEWLLNEIRRLERLDHLAEKFRQKASIHEAWTDGKEAMLRQKDYETATLSEIKALLKKHEAFESDLAAHQDRVEQIAAIAQELNELDYYDSPSVNARCQKICDQWDNLGALTQKRREALERTEKLLETIDQLYLEYAKRAAPFNNWMEGAMEDLQDTFIVHTIEEIQGLTTAHEQFKATLPDADKERLAILGIHNEVSKIVQTYHVNMAGTNPYTTITPQEINGKWDHVRQLVPRRDQALTEEHARQQHNERLRKQFGAQANVIGPWIQTKMEEIGRISIEMHGTLEDQLSHLRQYEKSIVNYKPKIDQLEGDHQLIQEALIFDNKHTNYTMEHIRVGWEQLLTTIARTINEVENQILTRDAKGISQ
modifications: biotin on the AviTag (second rod of the homo-dimer construct)
notes: human α-actinin 1 (ACTN1), central rod domain of four spectrin-like repeats SR1–SR2–SR3–SR4; a full SR rod with the helical linker region has about 480 amino acids; Stood in single-chain chimeras: Spy003–(SR1–SR4)ACTN1–(GS linker, about 170 aa)–AviTag–(SR1–SR4)ACTN1 (homo-dimer; first rod bears SpyTag003, second rod the biotinylated AviTag) and Spy003–(SR1–SR4)ACTN1–(GS …)

For series [1], the target named is Entamoeba histolytica α-actinin 2 rod SR1–SR2 (Entamoeba histolytica). In words: single-molecule magnetic tweezers; shear–force geometry; same tethered single-chain constructs; force–jump cycles, dwell time until rupture at a target force, lifetime by exponential fit with bootstrap analysis; 1× PBS, 1% BSA, 1 mM DTT, 10 mM sodium L-ascorbate, 22 ± 1 °C.
Series [2] shares this target. In words: single-molecule magnetic tweezers; shear–force geometry; the two partners on one chain joined by a long flexible GS linker, tethered via SpyTag003 to a SpyCatcher-coated coverslip and via the biotinylated AviTag to a streptavidin/neutravidin bead; linear force-increase scans (5 pN/s; 1 pN/s for SR2–SR3:SR2–SR3; 1 and 5 pN/s for E. histolytica) and force-decrease scans (−0.1 pN/s); 1× PBS, 1% BSA, 1 mM DTT, 10 mM sodium L-ascorbate, 22 ± 1 °C.

Series [3] concerns the molecule itself. The series can be described thus: single-molecule magnetic tweezers; shear–force geometry; same tethered single-chain constructs; force–jump cycles, dwell time until rupture at a target force, lifetime by exponential fit with bootstrap analysis; 1× PBS, 1% BSA, 1 mM DTT, 10 mM sodium L-ascorbate, 22 ± 1 °C.
In series [4] the target is B3. The description is as above. Particulars: both partners purified.
The target of series [5] is T1, human α-actinin 1 SR2–SR3–SR4 (human, UniProt P12814 385-745).
T1 construct: human α-actinin 1 (ACTN1), spectrin-like repeats SR2–SR3–SR4 of the rod; First half of the single-chain chimera Spy003–(SR2–SR3–SR4)ACTN1–(GS linker)–AviTag–(SR1–SR2–SR3)ACTN1; joined to m5 by the linker; also called (SR2–SR3–SR4)_(ACTN1); not shown: SpyTag003, N-terminal, kept
The description is as above. Particulars: both partners purified.

For the molecule “Entamoeba histolytica α-actinin 2 rod SR1–SR2 (domain or fragment)”, in series [1], the lifetime at forces <10 pN (second state) was greater than 10 s, the lifetime at forces <10 pN (third state) is greater than 1 s and the lifetime at forces <15 pN (strongest state) was greater than 100 s. In series [2], this molecule returned a peak rupture force (second state, 5 pN/s) of 20 pN; a peak rupture force (strongest state, 5 pN/s) of 33 pN; a rupture force (third state) of 5 pN.

B1: human α-actinin 4 rod domain SR1–SR2–SR3–SR4 (domain or fragment, UniProt O43707 286-764, looked up)
chain: AVNQENEHLMEDYEKLASDLLEWIRRTIPWLEDRVPQKTIQEMQQKLEDFRDYRRVHKPPKVQEKCQLEINFNTLQTKLRLSNRPAFMPSEGKMVSDINNGWQHLEQAEKGYEEWLLNEIRRLERLDHLAEKFRQKASIHEAWTDGKEAMLKHRDYETATLSDIKALIRKHEAFESDLAAHQDRVEQIAAIAQELNELDYYDSHNVNTRCQKICDQWDALGSLTHSRREALEKTEKQLEAIDQLHLEYAKRAAPFNNWMESAMEDLQDMFIVHTIEEIEGLISAHDQFKSTLPDADREREAILAIHKEAQRIAESNHIKLSGSNPYTTVTPQIINSKWEKVQQLVPKRDHALLEEQSKQQSNEHLRRQFASQANVVGPWIQTKMEEIGRISIEMNGTLEDQLSHLKQYERSIVDYKPNLDLLEQQHQLIQEALIFDNKHTNYTMEHIRVGWEQLLTTIARTINEVENQILTRDAKGISQ
modifications: biotin on the AviTag (second rod of the construct)
notes: human α-actinin 4 (ACTN4), central rod domain of four spectrin-like repeats SR1–SR2–SR3–SR4; here the ACTN4 rod bears the biotinylated AviTag; also called (SR1–SR2–SR3–SR4)_(ACTN4); not shown: SpyTag003, N-terminal, kept; AviTag, N-terminal, kept
For B1, the “lifetime within 40 pN (shear geometry)” value in series [3] and in series [4] was greater than 100 s throughout.

B2: human α-actinin 1 SR1–SR2–SR3 (domain or fragment, UniProt P12814 267-625, looked up)
chain: AVNQENEQLMEDYEKLASDLLEWIRRTIPWLENRVPENTMHAMQQKLEDFRDYRRLHKPPKVQEKCQLEINFNTLQTKLRLSNRPAFMPSEGRMVSDINNAWGCLEQVEKGYEEWLLNEIRRLERLDHLAEKFRQKASIHEAWTDGKEAMLRQKDYETATLSEIKALLKKHEAFESDLAAHQDRVEQIAAIAQELNELDYYDSPSVNARCQKICDQWDNLGALTQKRREALERTEKLLETIDQLYLEYAKRAAPFNNWMEGAMEDLQDTFIVHTIEEIQGLTTAHEQFKATLPDADKERLAILGIHNEVSKIVQTYHVNMAGTNPYTTITPQEINGKWDHVRQLVPRRDQALTEEHARQ
modifications: biotin on the AviTag
notes: human α-actinin 1 (ACTN1), spectrin-like repeats SR1–SR2–SR3 of the rod; Second half of the single-chain chimera Spy003–(SR2–SR3–SR4)ACTN1–(GS linker)–AviTag–(SR1–SR2–SR3)ACTN1; joined to m4 by the linker; also called (SR1–SR2–SR3)_(ACTN1); not shown: AviTag, N-terminal, kept
On to B2, for which the “fold decrease of the force-dependent lifetime against the full rod dimer (m1 with m1)” value in series [5] is roughly 1000 fold.
As for B3, the “lifetime within 40 pN (shear geometry)” value in series [3] is greater than 100 s.
